Results from patent publication WO2023028914A1 (dated 2023).

Biological target: T1, human Her3-His recombinant protein (human, UniProt P21860 20-643)
T1 construct: Recombinant His-tagged human Her3; not shown: His tag
Assay: BLI (Fortebio Octet 96e), antibody loaded on AMC sensor, human Her3-His 100-3.13 nM in solution

T1 sequence (P21860 20-643 limits assumed): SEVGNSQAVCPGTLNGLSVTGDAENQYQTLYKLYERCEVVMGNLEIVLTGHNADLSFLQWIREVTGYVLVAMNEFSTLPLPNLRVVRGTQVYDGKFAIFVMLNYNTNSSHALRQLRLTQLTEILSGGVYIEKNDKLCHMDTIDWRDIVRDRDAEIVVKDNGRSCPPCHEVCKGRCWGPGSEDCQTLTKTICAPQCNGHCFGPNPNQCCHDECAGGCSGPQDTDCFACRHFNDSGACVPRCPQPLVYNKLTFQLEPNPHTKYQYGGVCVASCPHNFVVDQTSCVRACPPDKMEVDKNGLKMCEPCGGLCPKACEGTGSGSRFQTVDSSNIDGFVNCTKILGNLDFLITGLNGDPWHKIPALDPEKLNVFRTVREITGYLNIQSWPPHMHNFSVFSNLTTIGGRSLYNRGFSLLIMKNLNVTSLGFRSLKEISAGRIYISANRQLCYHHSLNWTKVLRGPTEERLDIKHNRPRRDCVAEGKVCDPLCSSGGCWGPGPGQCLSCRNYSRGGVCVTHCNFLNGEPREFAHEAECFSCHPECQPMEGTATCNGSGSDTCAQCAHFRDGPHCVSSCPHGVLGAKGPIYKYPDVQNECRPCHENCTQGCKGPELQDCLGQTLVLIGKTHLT

B1: monoclonal antibody 2F8 (antibody, V domains shown)
VH: QVQLQQWGAGLLKPSETLSLTCAVYGGSFSGYYWSWIRQPPGKGLEWIGEINHSGSTNYNPSLKSRVTISVETSKNQFSLKLSSVTAADTAVYYCARDKWTWYFDLWGRGTLVTVSS
VL: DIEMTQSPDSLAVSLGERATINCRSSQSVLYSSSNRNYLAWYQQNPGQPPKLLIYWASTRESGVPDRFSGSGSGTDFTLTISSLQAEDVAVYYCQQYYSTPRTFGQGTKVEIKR
notes: also called 2F8-new; parental molecule 2F8
**Q.** Which results are given for B1?
**A.** Kd: 2.43 nM; koff: 0.000357 s⁻¹; kon: 147000 M⁻¹ s⁻¹

B2: antibody 3F5 (light chain mutant 2F8-Lm1 combined with heavy chain 2F8-H-new) (antibody, human IgG1, kappa, V domains shown)
VH: B1 VH
VL: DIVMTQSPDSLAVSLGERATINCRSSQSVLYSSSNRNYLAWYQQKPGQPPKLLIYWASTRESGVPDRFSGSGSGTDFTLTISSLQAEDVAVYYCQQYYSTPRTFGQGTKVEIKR
notes: also called 2F8-m1; 3F5 mutant
**Q.** How did the Kd turn out when B2 was run?
**A.** 2.53 nM

**Q.** And the koff?
**A.** 0.000393 s⁻¹

**Q.** What about the kon of the same binder?
**A.** 156000 M⁻¹ s⁻¹
